These results are taken from patent US20220098307A1 (WUHAN YZY BIOPHARMA, published 2022).

The chains are these.
B1: M3IC-G2D (bispecific antibody)
chain 1: EVKLDETGGGLVQPGRPMKLSCVASGFTFSDYWMNWVRQSPEKGLEWVAQIRNKPYNYETYYSDSVKGRFTISRDDSKSSVYLQMNNLRVEDMGIYYCTGSYYGMDYWGQGTSVTVSSASTKGPSVFPLAPSSKSTSGGTAALGCLVKDYFPEPVTVSWNSGALTSGVHTFPAVLQSSGLYSLSSVVTVPSSSLGTQTYICNVNHKPSNTKVDKKVEPKSCGGGGSGGGGSQVQLVESGGGVVQPGRSLRLSCAASGFTFSTYAMNWVRQAPGKGLEWVARIRSKYNNYATYYADSVKDRFTISRDDSKNTLYLQMNSLRAEDTAVYYCARHGNFGNSYVSWFAYWGQGTLVTVSSASVAAPSVFIFPPSDEQLKSGTASVVCLLNNFYPREAKVQWKVDNALQSGNSQESVTEQDSKDSTYSLSSTLTLSKADYEKHKVYACEVTHQGLSSPVTKSFNRGECDKTHTCPPCPAPPVAGPSVFLFPPKPKDTLMISRTPEVTCVVVDVSHEAPEVQFNWYVDGVEVHNAKTKPREEQFNSTFRVVSVLTVVHQDWLNGKEYKCKVSNKGLPAPIEKTISKTKGQPREPQVYTLPPCRDELTKNQVSLWCLVKGFYPSDIAVEWESNGQPENNYKTTPPVLDSDGSFFLYSKLTVDKSRWQQGNVFSCSVMHEALHNHYTQKSLSLSPGK
chain 2: QTVVTQEPSLTVSPGGTVTLTCRSSTGAVTTSNYANWVQQKPGQAPRGLIGGTNKRAPGVPARFSGSLLGGKAALTLSGVQPEDEAEYYCALWYSNLWVFGGGTKVEIKSSASTKGPSVFPLAPSSKSTSGGTAALGCLVKDYFPEPVTVSWNSGALTSGVHTFPAVLQSSGLYSLSSVVTVPSSSLGTQTYICNVNHKPSNTKVDKKVEPKSC
heavy: EVKLDETGGGLVQPGRPMKLSCVASGFTFSDYWMNWVRQSPEKGLEWVAQIRNKPYNYETYYSDSVKGRFTISRDDSKSSVYLQMNNLRVEDMGIYYCTGSYYGMDYWGQGTSVTVSSASTKGPSVFPLAPSSKSTSGGTAALGCLVKDYFPEPVTVSWNSGALTSGVHTFPAVLQSSGLYSLSSVVTVPSSSLGTQTYICNVNHKPSNTKVDKKVEPKSCDKTHTCPPCPAPPVAGPSVFLFPPKPKDTLMISRTPEVTCVVVDVSHEAPEVQFNWYVDGVEVHNAKTKPREEQFNSTFRVVSVLTVVHQDWLNGKEYKCKVSNKGLPAPIEKTISKTKGQPREPQVCTLPPSRDELTKNQVSLSCAVKGFYPSDIAVEWESNGQPENNYKTTPPVLDSDGSFFLVSKLTVDKSRWQQGNVFSCSVMHEALHNRFTQKSLSLSPGK
light: DVVMTQTPLSLPVSLGDQASISCRSSQSLVHSNGNTYLRWYLQKPGQSPKVLIYKVSNRFSGVPDRFSGSGSGTDFTLKISRVEAEDLGVYFCSQSTHVPWTFGGGTKLEIKRTVAAPSVFIFPPSDEQLKSGTASVVCLLNNFYPREAKVQWKVDNALQSGNSQESVTEQDSKDSTYSLSSTLTLSKADYEKHKVYACEVTHQGLSSPVTKSFNRGEC
notes: structure 3 isotype control; CH2 G2DCH2
B2: M3IC-GG2 (bispecific antibody)
chain 1: B1 chain 1 with C472G, A512D
chain 2: B1 chain 2
heavy: B1 heavy with C230G, A270D
light: B1 light
notes: structure 3 isotype control; CH2 GG2CH2
B3: M3IC-SG2 (bispecific antibody)
chain 1: B1 chain 1 with C472S, A512D
chain 2: B1 chain 2
heavy: B1 heavy with C230S, A270D
light: B1 light
notes: structure 3 isotype control; CH2 SG2CH2
B4: M3IC-PG2 (bispecific antibody)
chain 1: B1 chain 1 with C472P, A512D
chain 2: B1 chain 2
heavy: B1 heavy with C230P, A270D
light: B1 light
notes: structure 3 isotype control; CH2 PG2CH2

The EC50 is the concentration needed to bring the measured effect to its halfway point.

Changes are numbered by the printed parent chain.

One assay has as its target T1, Human CD3ε (human, UniProt P07766 23-126).
T1 construct: CD3 on T cells isolated from human whole blood
Nature of the assay: flow cytometry, human T cells. In outline:
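Cell binding by flow cytometry: antigen-positive tumor cells (e.g. MM.1S or RPMI 8226 for CD38) or CD3+ T cells, 2×10⁵/well, with antibody 3-fold diluted over 11 points from 3000 nM, 2 h at 4° C with shaking.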
Turning to B1, the response was half-maximal at 607 nM (EC50).
The molecule B2 showed an EC50 of 609 nM.
Same read-out and setting: the result for B3 reads 677 nM; that for B4, 696 nM.

A further assay addresses T2, human CEA (human, UniProt P06731 35-685).
T2 sequence: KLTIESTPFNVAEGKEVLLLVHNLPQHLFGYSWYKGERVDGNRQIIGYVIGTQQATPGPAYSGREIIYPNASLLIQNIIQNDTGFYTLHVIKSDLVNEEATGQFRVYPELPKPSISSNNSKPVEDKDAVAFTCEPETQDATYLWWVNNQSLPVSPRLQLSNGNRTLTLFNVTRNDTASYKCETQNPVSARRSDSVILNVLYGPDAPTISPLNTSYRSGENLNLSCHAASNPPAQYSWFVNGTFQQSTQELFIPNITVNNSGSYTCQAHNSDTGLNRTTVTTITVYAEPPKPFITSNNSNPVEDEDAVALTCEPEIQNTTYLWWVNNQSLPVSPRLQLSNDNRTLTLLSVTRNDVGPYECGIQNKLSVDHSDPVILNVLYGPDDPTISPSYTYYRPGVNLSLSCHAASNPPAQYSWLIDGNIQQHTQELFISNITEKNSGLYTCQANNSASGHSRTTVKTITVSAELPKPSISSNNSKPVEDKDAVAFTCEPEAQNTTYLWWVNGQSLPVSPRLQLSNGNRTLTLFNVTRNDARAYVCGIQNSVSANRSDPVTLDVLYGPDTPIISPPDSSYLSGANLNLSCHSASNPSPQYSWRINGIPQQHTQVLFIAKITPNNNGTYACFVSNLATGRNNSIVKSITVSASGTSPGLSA
Nature of the assay: flow cytometry, human tumor cells (table of the CEA series). The source says: 1) Cell preparation: T cells isolated from CD3-positive human whole blood were used for a CD3 end affinity detection of multifunctional antibody molecule; positive tumor cells of corresponding antigen were used for detecting affinity of tumor antigen; for example, CD38-positive MM. 1S cells (purchased from the Cell Resource Center of Shanghai Institutes for Biological Sciences, Chinese Academy of Sciences) or RPMI 8226 cells (purchased from the Cell Resource Center of Shanghai Institutes for Biological Sciences, Chinese Academy of Sciences) were used for CD38 antigen detection, and PD-L1 positive H358 cells (purchased from the Cell Resource Center of Shanghai Institutes for Biological Sciences, Chinese Academy of Sciences) were used for PD-L1 antigen detection, and so on. The cells were resuspended with 1% FBS-PBS, adjusted to a density of 4×10⁶/ml, and 50 μl of cells were taken from each well, and then plated at 2×10⁵ per well. Cell plating was operated on ice
2) Addition of the antibody: according to the experimental design, the antibody was diluted gradually, and dilution of antibody was operated on ice. For example, the initial concentration of antibody for dilution was 3000 nM, and the antibody was diluted by 3 times with 11 concentration gradients. The diluted antibody was added to a cell well at 50 μl per well, mixed well, and shaked and incubated at 4° C. 1100 rpm/min for 2 h; after washing, the cells were resuspend in 1% FBS-PBS, and a diluted secondary antibody PE anti-human IgG FC (Biolegend, 409304) was added with a final concentration of 8 ug/ml and a volume of 50 μl/well. At the same time, a well only added with cells and secondary antibody was set as a control, the components were mixed well, and incubated under shaking at 1100 rpm/min at 4° C. for 1 h;
5) Data analysis: the data was analyzed by a flow analysis software FlowJo 7.6 thereby obtaining an average fluorescence intensity of the specific antibody concentration, plotted by a Graphpad Prism 5 with the antibody concentration (nM) as an abscissa and the average fluorescence intensity as an ordinate; the EC50 value was calculated by the method of One site—Specific binding, and the EC50 value indicated the cell affinity of the antibody to the corresponding target antigen.
In general terms: Flow cytometry measures light scatter and fluorescence of single cells or particles in a stream.
For the molecule B1, the binding result is listed as “no binding”.
On to B2, for which the binding result is “no binding”.
In the case of B3, the binding result is on record as “no binding”.
Same read-out and setting: the result for B4 reads “no binding”.
